T1: GRIP1_3, Q9Y3R0
T1 sequence (Q9Y3R0 247-346, limits assumed, looked up): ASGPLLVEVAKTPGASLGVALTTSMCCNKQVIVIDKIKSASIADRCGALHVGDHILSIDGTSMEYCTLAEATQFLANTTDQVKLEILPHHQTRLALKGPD

T2: GRIP1_7, Q9Y3R0
T2 sequence (Q9Y3R0 999-1096, limits assumed, looked up): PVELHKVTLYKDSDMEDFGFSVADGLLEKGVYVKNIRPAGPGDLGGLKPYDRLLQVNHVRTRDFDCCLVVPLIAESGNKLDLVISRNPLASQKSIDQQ

T3: LRRC7, Q96NW7
T3 sequence (Q96NW7 1440-1537, limits assumed, looked up): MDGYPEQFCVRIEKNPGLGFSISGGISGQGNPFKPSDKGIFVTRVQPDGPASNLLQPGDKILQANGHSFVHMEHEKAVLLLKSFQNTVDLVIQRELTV

T4: MPDZ_5, O75970
T4 sequence (O75970 695-796, limits assumed, looked up): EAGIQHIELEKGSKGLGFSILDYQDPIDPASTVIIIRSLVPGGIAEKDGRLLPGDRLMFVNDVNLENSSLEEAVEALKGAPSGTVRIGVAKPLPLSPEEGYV

T5: MPP7, Q5T2T1
T5 sequence (Q5T2T1 134-230, limits assumed, looked up): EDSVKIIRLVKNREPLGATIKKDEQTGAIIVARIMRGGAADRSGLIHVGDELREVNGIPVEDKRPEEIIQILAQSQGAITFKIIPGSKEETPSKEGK

T6: NHERF3_3, Q5T2W1
T6 sequence (Q5T2W1 238-333, limits assumed, looked up): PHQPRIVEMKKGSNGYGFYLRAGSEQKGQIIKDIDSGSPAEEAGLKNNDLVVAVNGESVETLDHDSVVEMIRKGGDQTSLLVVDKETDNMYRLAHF

T7: NHERF3_4, Q5T2W1
T7 sequence (Q5T2W1 373-468, limits assumed, looked up): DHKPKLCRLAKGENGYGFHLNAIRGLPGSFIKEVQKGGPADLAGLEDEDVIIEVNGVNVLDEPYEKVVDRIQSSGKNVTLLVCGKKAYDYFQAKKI

T8: PCLO, Q9Y6V0
T8 sequence (Q9Y6V0 4491-4600, limits assumed, looked up): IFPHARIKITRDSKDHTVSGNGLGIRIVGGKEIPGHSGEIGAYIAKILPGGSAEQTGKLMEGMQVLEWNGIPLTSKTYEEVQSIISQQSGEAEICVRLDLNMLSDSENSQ

T9: RHPN1, Q8TCX5
T9 sequence (Q8TCX5 508-602, limits assumed, looked up): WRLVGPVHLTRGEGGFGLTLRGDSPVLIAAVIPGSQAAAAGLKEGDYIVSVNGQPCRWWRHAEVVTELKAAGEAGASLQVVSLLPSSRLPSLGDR

T10: SNTA1, Q13424
T10 sequence (Q13424 82-180, limits assumed, looked up): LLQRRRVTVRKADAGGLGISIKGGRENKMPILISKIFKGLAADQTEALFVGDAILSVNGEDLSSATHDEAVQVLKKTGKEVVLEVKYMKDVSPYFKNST

T11: SYNJ2BP, P57105
T11 sequence (P57105 8-110, limits assumed, looked up): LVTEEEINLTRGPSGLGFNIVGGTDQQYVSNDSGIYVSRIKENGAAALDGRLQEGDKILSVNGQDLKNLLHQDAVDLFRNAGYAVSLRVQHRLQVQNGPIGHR

T12: TX1BP3, O14907
T12 sequence (O14907 10-122, limits assumed, looked up): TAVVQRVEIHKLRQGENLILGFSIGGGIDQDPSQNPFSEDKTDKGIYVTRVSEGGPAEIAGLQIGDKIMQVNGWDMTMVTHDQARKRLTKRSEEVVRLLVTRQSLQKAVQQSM


Each binder was assayed against DLG1_2, Q12959 (assay: holdup assay). Details: plain residues with an end cap or a label only (N-terminal biotin on a linker: ado-ado).
Chain of DLG1_2, Q12959 (Q12959 314-412): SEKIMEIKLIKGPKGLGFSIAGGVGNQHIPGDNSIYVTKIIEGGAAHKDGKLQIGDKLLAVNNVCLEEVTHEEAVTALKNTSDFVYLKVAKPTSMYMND
Parameters: key: below the threshold = too weak to quantify, mostly under pKd 3.1 to 4
VNKSKLLTDV [KCNA1, Q09470] gave a pKd of 4.55.
For TPPAAKKSRI [BAZ1A, Q9NRL2], the pKd was “below the threshold”.

Each binder was assayed against DLG2_2, Q15700 (assay: holdup assay). Details: plain residues with an end cap or a label only (N-terminal biotin on a linker: ado-ado).
Parameters: key: below the threshold = too weak to quantify, mostly under pKd 3.1 to 4
For VNKSKLLTDV [KCNA1, Q09470], the pKd was 4.29.
With TPPAAKKSRI [BAZ1A, Q9NRL2] the pKd was 3.65.

Each binder was assayed against DLG2_3, Q15700 (assay: holdup assay). Details: plain residues with an end cap or a label only (N-terminal biotin on a linker: ado-ado).
Parameters: key: below the threshold = too weak to quantify, mostly under pKd 3.1 to 4
Binder VNKSKLLTDV [KCNA1, Q09470] has a pKd of 3.57.
With TPPAAKKSRI [BAZ1A, Q9NRL2] the pKd was “below the threshold”.

These binders were tested against DLG5_1, Q8TDM6 (assay: holdup assay). Details: plain residues with an end cap or a label only (N-terminal biotin on a linker: ado-ado).
Chain of DLG5_1, Q8TDM6 (Q8TDM6 617-713): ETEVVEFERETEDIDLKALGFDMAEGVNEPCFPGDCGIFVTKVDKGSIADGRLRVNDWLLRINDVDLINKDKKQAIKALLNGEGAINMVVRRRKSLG
Parameters: key: below the threshold = too weak to quantify, mostly under pKd 3.1 to 4
With VNKSKLLTDV [KCNA1, Q09470] the pKd was “below the threshold”.
Binder TPPAAKKSRI [BAZ1A, Q9NRL2] has a pKd of 3.57.

What follows are binders tested against GRID2IP_2, A4D2P6 (assay: holdup assay). Details: plain residues with an end cap or a label only (N-terminal biotin on a linker: ado-ado).
Chain of GRID2IP_2, A4D2P6 (A4D2P6 272-370): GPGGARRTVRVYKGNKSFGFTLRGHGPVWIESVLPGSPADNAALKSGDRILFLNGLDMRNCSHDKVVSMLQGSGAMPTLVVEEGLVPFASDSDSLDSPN
Parameters: key: below the threshold = too weak to quantify, mostly under pKd 3.1 to 4
VNKSKLLTDV [KCNA1, Q09470] gave a pKd of 3.71.
TPPAAKKSRI [BAZ1A, Q9NRL2] gave a pKd of 4.42.

The binders below were run against T1, GRIP1_3, Q9Y3R0 (assay: holdup assay). Details: plain residues with an end cap or a label only (N-terminal biotin on a linker: ado-ado).
Parameters: key: below the threshold = too weak to quantify, mostly under pKd 3.1 to 4
In the case of VNKSKLLTDV [KCNA1, Q09470], the pKd is reported as “below the threshold”.
For TPPAAKKSRI [BAZ1A, Q9NRL2], the pKd was “below the threshold”.

Each binder was assayed against T2, GRIP1_7, Q9Y3R0 (assay: holdup assay). Details: plain residues with an end cap or a label only (N-terminal biotin on a linker: ado-ado).
Parameters: key: below the threshold = too weak to quantify, mostly under pKd 3.1 to 4
VNKSKLLTDV [KCNA1, Q09470] was tested, and the pKd was “below the threshold”.
For TPPAAKKSRI [BAZ1A, Q9NRL2], the pKd was “below the threshold”.

The binders below were run against GRIP2_7, Q9C0E4 (assay: holdup assay). Details: plain residues with an end cap or a label only (N-terminal biotin on a linker: ado-ado).
Chain of GRIP2_7, Q9C0E4 (Q9C0E4 934-1023): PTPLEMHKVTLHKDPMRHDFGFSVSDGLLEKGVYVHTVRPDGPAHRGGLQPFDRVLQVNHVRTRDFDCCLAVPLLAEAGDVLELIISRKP
Parameters: key: below the threshold = too weak to quantify, mostly under pKd 3.1 to 4
VNKSKLLTDV [KCNA1, Q09470] was tested, and the pKd was “below the threshold”.
In the case of TPPAAKKSRI [BAZ1A, Q9NRL2], the pKd is reported as “below the threshold”.

What follows are binders tested against HTRA1, Q92743 (assay: holdup assay). Details: plain residues with an end cap or a label only (N-terminal biotin on a linker: ado-ado).
Chain of HTRA1, Q92743 (Q92743 360-477): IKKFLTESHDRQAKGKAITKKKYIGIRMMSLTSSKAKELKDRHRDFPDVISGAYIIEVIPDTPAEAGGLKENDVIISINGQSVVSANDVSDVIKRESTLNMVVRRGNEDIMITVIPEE
Parameters: key: below the threshold = too weak to quantify, mostly under pKd 3.1 to 4
In the case of VNKSKLLTDV [KCNA1, Q09470], the pKd is reported as “below the threshold”.
TPPAAKKSRI [BAZ1A, Q9NRL2] was tested, and the pKd was “below the threshold”.

These binders were tested against Inadl_5, Q8NI35 (assay: holdup assay). Details: plain residues with an end cap or a label only (N-terminal biotin on a linker: ado-ado).
Chain of Inadl_5, Q8NI35 (Q8NI35 673-780): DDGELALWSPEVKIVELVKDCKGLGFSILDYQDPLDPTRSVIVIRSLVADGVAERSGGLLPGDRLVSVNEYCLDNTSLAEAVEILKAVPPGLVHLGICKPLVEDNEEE
Parameters: key: below the threshold = too weak to quantify, mostly under pKd 3.1 to 4
VNKSKLLTDV [KCNA1, Q09470] was tested, and the pKd was “below the threshold”.
TPPAAKKSRI [BAZ1A, Q9NRL2] was tested, and the pKd was “below the threshold”.

The binders below were run against LIMK2, P53671 (assay: holdup assay). Details: plain residues with an end cap or a label only (N-terminal biotin on a linker: ado-ado).
Chain of LIMK2, P53671 (P53671 143-248): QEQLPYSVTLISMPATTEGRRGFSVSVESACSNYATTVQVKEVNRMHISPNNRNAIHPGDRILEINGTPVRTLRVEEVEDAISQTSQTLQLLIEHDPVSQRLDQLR
Parameters: key: below the threshold = too weak to quantify, mostly under pKd 3.1 to 4
With VNKSKLLTDV [KCNA1, Q09470] the pKd was “below the threshold”.
With TPPAAKKSRI [BAZ1A, Q9NRL2] the pKd was “below the threshold”.

The binders below were run against T3, LRRC7, Q96NW7 (assay: holdup assay). Details: plain residues with an end cap or a label only (N-terminal biotin on a linker: ado-ado).
Parameters: key: below the threshold = too weak to quantify, mostly under pKd 3.1 to 4
For VNKSKLLTDV [KCNA1, Q09470], the pKd was “below the threshold”.
With TPPAAKKSRI [BAZ1A, Q9NRL2] the pKd was “below the threshold”.

Each binder was assayed against MAGI2_3, Q86UL8 (assay: holdup assay). Details: plain residues with an end cap or a label only (N-terminal biotin on a linker: ado-ado).
Chain of MAGI2_3, Q86UL8 (Q86UL8 600-682): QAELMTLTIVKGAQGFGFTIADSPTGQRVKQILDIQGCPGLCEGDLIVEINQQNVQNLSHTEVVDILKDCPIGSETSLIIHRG
Parameters: key: below the threshold = too weak to quantify, mostly under pKd 3.1 to 4
In the case of VNKSKLLTDV [KCNA1, Q09470], the pKd is reported as “below the threshold”.
TPPAAKKSRI [BAZ1A, Q9NRL2] was tested, and the pKd was “below the threshold”.

The binders below were run against MAGI2_4, Q86UL8 (assay: holdup assay). Details: plain residues with an end cap or a label only (N-terminal biotin on a linker: ado-ado).
Chain of MAGI2_4, Q86UL8 (Q86UL8 772-865): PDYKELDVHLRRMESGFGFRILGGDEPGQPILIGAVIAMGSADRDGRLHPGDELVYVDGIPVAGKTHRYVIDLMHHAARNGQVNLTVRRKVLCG
Parameters: key: below the threshold = too weak to quantify, mostly under pKd 3.1 to 4
For VNKSKLLTDV [KCNA1, Q09470], the pKd was 3.79.
In the case of TPPAAKKSRI [BAZ1A, Q9NRL2], the pKd is reported as 3.71.

The binders below were run against MAST1, Q9Y2H9 (assay: holdup assay). Details: plain residues with an end cap or a label only (N-terminal biotin on a linker: ado-ado).
Chain of MAST1, Q9Y2H9 (Q9Y2H9 962-1065): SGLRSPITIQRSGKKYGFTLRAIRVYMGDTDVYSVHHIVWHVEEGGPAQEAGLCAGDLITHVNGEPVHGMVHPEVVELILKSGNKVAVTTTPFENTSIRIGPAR
Parameters: key: below the threshold = too weak to quantify, mostly under pKd 3.1 to 4
VNKSKLLTDV [KCNA1, Q09470] showed a pKd of 4.3.
TPPAAKKSRI [BAZ1A, Q9NRL2] showed a pKd of 3.9.

The binders below were run against T4, MPDZ_5, O75970 (assay: holdup assay). Details: plain residues with an end cap or a label only (N-terminal biotin on a linker: ado-ado).
Parameters: key: below the threshold = too weak to quantify, mostly under pKd 3.1 to 4
In the case of VNKSKLLTDV [KCNA1, Q09470], the pKd is reported as “below the threshold”.
TPPAAKKSRI [BAZ1A, Q9NRL2] was tested, and the pKd was “below the threshold”.

These binders were tested against T5, MPP7, Q5T2T1 (assay: holdup assay). Details: plain residues with an end cap or a label only (N-terminal biotin on a linker: ado-ado).
Parameters: key: below the threshold = too weak to quantify, mostly under pKd 3.1 to 4
VNKSKLLTDV [KCNA1, Q09470] was tested, and the pKd was “below the threshold”.
With TPPAAKKSRI [BAZ1A, Q9NRL2] the pKd was “below the threshold”.

These binders were tested against T6, NHERF3_3, Q5T2W1 (assay: holdup assay). Details: plain residues with an end cap or a label only (N-terminal biotin on a linker: ado-ado).
Parameters: key: below the threshold = too weak to quantify, mostly under pKd 3.1 to 4
With VNKSKLLTDV [KCNA1, Q09470] the pKd was “below the threshold”.
TPPAAKKSRI [BAZ1A, Q9NRL2] was tested, and the pKd was “below the threshold”.

What follows are binders tested against T7, NHERF3_4, Q5T2W1 (assay: holdup assay). Details: plain residues with an end cap or a label only (N-terminal biotin on a linker: ado-ado).
Parameters: key: below the threshold = too weak to quantify, mostly under pKd 3.1 to 4
VNKSKLLTDV [KCNA1, Q09470] was tested, and the pKd was “below the threshold”.
TPPAAKKSRI [BAZ1A, Q9NRL2] was tested, and the pKd was “below the threshold”.

These binders were tested against T8, PCLO, Q9Y6V0 (assay: holdup assay). Details: plain residues with an end cap or a label only (N-terminal biotin on a linker: ado-ado).
Parameters: key: below the threshold = too weak to quantify, mostly under pKd 3.1 to 4
VNKSKLLTDV [KCNA1, Q09470] was tested, and the pKd was “below the threshold”.
In the case of TPPAAKKSRI [BAZ1A, Q9NRL2], the pKd is reported as “below the threshold”.

What follows are binders tested against PDZRN4_1, Q6ZMN7 (assay: holdup assay). Details: plain residues with an end cap or a label only (N-terminal biotin on a linker: ado-ado).
Chain of PDZRN4_1, Q6ZMN7 (Q6ZMN7 213-318): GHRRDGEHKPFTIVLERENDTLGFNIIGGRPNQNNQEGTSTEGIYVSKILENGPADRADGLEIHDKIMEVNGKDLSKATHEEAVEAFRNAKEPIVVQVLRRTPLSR
Parameters: key: below the threshold = too weak to quantify, mostly under pKd 3.1 to 4
In the case of VNKSKLLTDV [KCNA1, Q09470], the pKd is reported as “below the threshold”.
For TPPAAKKSRI [BAZ1A, Q9NRL2], the pKd was “below the threshold”.

These binders were tested against T9, RHPN1, Q8TCX5 (assay: holdup assay). Details: plain residues with an end cap or a label only (N-terminal biotin on a linker: ado-ado).
Parameters: key: below the threshold = too weak to quantify, mostly under pKd 3.1 to 4
For VNKSKLLTDV [KCNA1, Q09470], the pKd was 3.96.
TPPAAKKSRI [BAZ1A, Q9NRL2] showed a pKd of 3.61.

The binders below were run against T10, SNTA1, Q13424 (assay: holdup assay). Details: plain residues with an end cap or a label only (N-terminal biotin on a linker: ado-ado).
Parameters: key: below the threshold = too weak to quantify, mostly under pKd 3.1 to 4
For VNKSKLLTDV [KCNA1, Q09470], the pKd was “below the threshold”.
In the case of TPPAAKKSRI [BAZ1A, Q9NRL2], the pKd is reported as “below the threshold”.

The binders below were run against T11, SYNJ2BP, P57105 (assay: holdup assay). Details: plain residues with an end cap or a label only (N-terminal biotin on a linker: ado-ado).
Parameters: key: below the threshold = too weak to quantify, mostly under pKd 3.1 to 4
Binder VNKSKLLTDV [KCNA1, Q09470] has a pKd of 3.72.
In the case of TPPAAKKSRI [BAZ1A, Q9NRL2], the pKd is reported as “below the threshold”.

These binders were tested against T12, TX1BP3, O14907 (assay: holdup assay). Details: plain residues with an end cap or a label only (N-terminal biotin on a linker: ado-ado).
Parameters: key: below the threshold = too weak to quantify, mostly under pKd 3.1 to 4
With VNKSKLLTDV [KCNA1, Q09470] the pKd was 4.22.
In the case of TPPAAKKSRI [BAZ1A, Q9NRL2], the pKd is reported as “below the threshold”.

From paper PMC9482650, “Quantitative fragmentomics allow affinity mapping of interactomes” (Nature Communications, 2022)
